In the supplement of paper PMC5998384:

Experiments:
HeLa Kyoto [1] = test: melting temperature (median over replicates), in situ; higher = more thermally stable
HeLa Kyoto [2] = test: thermal stability score vs G1/S (z-score of summed log2 fold changes over temperatures); higher = more thermally stable than in G1/S
HeLa Kyoto [3] = test: solubility in G1/S (NP-40 vs SDS abundance) (log2 ratio); higher = more soluble; conditions: cell cycle stage: G1/S
HeLa Kyoto [4] = test: solubility change mitosis vs G1/S (difference of NP-40 vs SDS log2 ratios) (log2 ratio difference); higher = more soluble in mitosis
[5] = cell cycle stage: early G1 (4.5 h after nocodazole release)
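Wherever melting temperature (median over replicates), in situ is given: HeLa Kyoto cells synchronized by double thymidine or nocodazole block, proteins quantified by TMT10plex mass spectrometry, three independent biological replicates.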
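Wherever solubility change mitosis vs G1/S (difference of NP-40 vs SDS log2 ratios) is given: synchronized HeLa Kyoto cells (double thymidine block for G1/S, nocodazole release for mitosis), protein amounts in NP-40 versus SDS lysates quantified by mass spectrometry, three biological replicates.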
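Wherever solubility in G1/S (NP-40 vs SDS abundance) is given: HeLa Kyoto cells arrested at G1/S by double thymidine block, proteins quantified by TMT10plex mass spectrometry in mild NP-40 versus SDS extracts, three biological replicates.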
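Wherever thermal stability score vs G1/S (z-score of summed log2 fold changes over temperatures) is given: synchronized HeLa Kyoto cells, proteins quantified by TMT10plex mass spectrometry, three biological replicates, mitosis taken 0.5 h after nocodazole release, G1/S directly after double thymidine block.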

Row | Sequence | melting temperature (HeLa Kyoto [1]; cell cycle stage: G1/S) [°C] | melting temperature (HeLa Kyoto [1]; cell cycle stage: mitosis) [°C] | thermal stability score (HeLa Kyoto [2]; [5]) | thermal stability score (HeLa Kyoto [2]; cell cycle stage: mitosis) | solubility in G1/S (log2) (HeLa Kyoto [3]) | solubility change mitosis (log2) (HeLa Kyoto [4])
1 | MATAAAAAAVMAPPGCPGSCPNFAVVCSFLERYGPLLDLPELPFPELERVLQAPPPDVGNGEVPKELVELHLKLMRKIGKSVTADRWEKYLIKICQEFNSTWAWEMEKKGYLEMSVECKLALLKYLCECQFDDNLKFKNIINEEDADTMRLQPIGRDKDGLMYWYQLDQDHNVRMYIEEQDDQDGSSWKCIVRNRNELAETLALLKAQIDPVLLKNSSQQDNSSRESPSLEDEETKKEEETPKQEEQKESEKMKSEEQPMDLENRSTANVLEETTVKKEKEDEKELVKLPVIVKLEKPLPENEEKKIIKEESDSFKENVKPIKVEVKECRADPKDTKSSMEKPVAQEPERIEFGGNIKSSHEITEKSTEETEKLKNDQQAKIPLKKREIKLSDDFDSPVKGPLCKSVTPTKEFLKDEIKQEEETCKRISTITALGHEGKQLVNGEVSDERVAPNFKTEPIETKFYETKEESYSPSKDRNIITEGNGTESLNSVITSMKTGELEKETAPLRKDADSSISVLEIHSQKAQIEEPDPPEMETSLDSSEMAKDLSSKTALSSTESCTMKGEEKSPKTKKDKRPPILECLEKLEKSKKTFLDKDAQRLSPIPEEVPKSTLESEKPGSPEAAETSPPSNIIDHCEKLASEKEVVECQSTSTVGGQSVKKVDLETLKEDSEFTKVEMDNLDNAQTSGIEEPSETKGSMQKSKFKYKLVPEEETTASENTEITSERQKEGIKLTIRISSRKKKPDSPPKVLEPENKQEKTEKEEEKTNVGRTLRRSPRISRPTAKVAEIRDQKADKKRGEGEDEVEEESTALQKTDKKEILKKSEKDTNSKVSKVKPKGKVRWTGSRTRGRWKYSSNDESEGSGSEKSSAASEEEEEKESEEAILADDDEPCKKCGLPNHPELILLCDSCDSGYHTACLRPPLMIIPDGEWFCPPCQHKLLCEKLEEQLQDLDVALKKKERAERRKERLVYVGISIENIIPPQEPDFSEDQEEKKKDSKKSKANLLERRSTRTRKCISYRFDEFDEAIDEAIEDDIKEADGGGVGRGKDISTITGHRGKDISTILDEERKENKRPQRAAAARRKKRRRLNDLDSDSNLDEEESEDEFKISDGSQDEFVVSDENPDESEEDPPSNDDSDTDFCSRRLRRHPSRPMRQSRRLRRKTPKKKYSDDDEEEESEENSRDSESDFSDDFSDDFVETRRRRSRRNQKRQINYKEDSESDGSQKSLRRGKEIRRVHKRRLSSSESEESYLSKNSEDDELAKESKRSVRKRGRSTDEYSEADEEEEEEEGKPSRKRLHRIETDEEESCDNAHGDANQPARDSQPRVLPSEQESTKKPYRIESDEEEDFENVGKVGSPLDYSLVDLPSTNGQSPGKAIENLIGKPTEKSQTPKDNSTASASLASNGTSGGQEAGAPEEEEDELLRVTDLVDYVCNSEQL [RSF1] | 49.1 | 51.7 | 0.31 | 2.21 | -1.03 | 0.0168
2 | MATAAETSASEPEAESKAGPKADGEEDEVKAARTRRKVLSRAVAAATYKTMGPAWDQQEEGVSESDGDEYAMASSAESSPGEYEWEYDEEEEKNQLEIERLEEQLSINVYDYNCHVDLIRLLRLEGELTKVRMARQKMSEIFPLTEELWLEWLHDEISMAQDGLDREHVYDLFEKAVKDYICPNIWLEYGQYSVGGIGQKGGLEKVRSVFERALSSVGLHMTKGLALWEAYREFESAIVEAARLEKVHSLFRRQLAIPLYDMEATFAEYEEWSEDPIPESVIQNYNKALQQLEKYKPYEEALLQAEAPRLAEYQAYIDFEMKIGDPARIQLIFERALVENCLVPDLWIRYSQYLDRQLKVKDLVLSVHNRAIRNCPWTVALWSRYLLAMERHGVDHQVISVTFEKALNAGFIQATDYVEIWQAYLDYLRRRVDFKQDSSKELEELRAAFTRALEYLKQEVEERFNESGDPSCVIMQNWARIEARLCNNMQKARELWDSIMTRGNAKYANMWLEYYNLERAHGDTQHCRKALHRAVQCTSDYPEHVCEVLLTMERTEGSLEDWDIAVQKTETRLARVNEQRMKAAEKEAALVQQEEEKAEQRKRARAEKKALKKKKKIRGPEKRGADEDDEKEWGDDEEEQPSKRRRVENSIPAAGETQNVEVAAGPAGKCAAVDVEPPSKQKEKAASLKRDMPKVLHDSSKDSITVFVSNLPYSMQEPDTKLRPLFEACGEVVQIRPIFSNRGDFRGYCYVEFKEEKSALQALEMDRKSVEGRPMFVSPCVDKSKNPDFKVFRYSTSLEKHKLFISGLPFSCTKEELEEICKAHGTVKDLRLVTNRAGKPKGLAYVEYENESQASQAVMKMDGMTIKENIIKVAISNPPQRKVPEKPETRKAPGGPMLLPQTYGARGKGRTQLSLLPRALQRPSAAAPQAENGPAAAPAVAAPAATEAPKMSNADFAKLFLRK [SART3] | 48.2 | 49.2 | 1.98 | 4.74 | -0.112 | -0.103
3 | MATAALLRGATPGRGGPVWRWRLRAAPRCRLAHSSCSPGGDPTAGAAWACFRLDGRTLLRVRGPDAAPFLLGLLTNELPLPSPAAAGAPPAARAGYAHFLNVQGRTLYDVILYGLQEHSEVSGFLLECDSSVQGALQKHLALYRIRRKVTVEPHPELRVWAVLPSSPEACGAASLQERAGAAAILIRDPRTARMGWRLLTQDEGPALVPGGRLGDLWDYHQHRYLQGVPEGVRDLPPGVALPLESNLAFMNGVSFTKGCYIGQELTARTHHMGVIRKRLFPVRFLDPLPTSGITPGATVLTASGQTVGKFRAGQGNVGLALLWSEKIKGPLHIRASEGAQVALAASVPDWWPTVSK [IBA57] | 52.8 | 52.4 | 0.0549 | -0.552 | -0.246 | 0.132
4 | MATALALRSLYRARPSLRCPPVELPWAPRRGHRLSPADDELYQRTRISLLQREAAQAMYIDSYNSRGFMINGNRVLGPCALLPHSVVQWNVGSHQDITEDSFSLFWLLEPRIEIVVVGTGDRTERLQSQVLQAMRQRGIAVEVQDTPNACATFNFLCHEGRVTGAALIPPPGGTSLTSLGQAAQ [NDUFAF3] | 53.4 | 53.5 | -0.2 | -2.08 | 0.117 | -0.0203
5 | MATALSEEELDNEDYYSLLNVRREASSEELKAAYRRLCMLYHPDKHRDPELKSQAERLFNLVHQAYEVLSDPQTRAIYDIYGKRGLEMEGWEVVERRRTPAEIREEFERLQREREERRLQQRTNPKGTISVGVDATDLFDRYDEEYEDVSGSSFPQIEINKMHISQSIEAPLTATDTAILSGSLSTQNGNGGGSINFALRRVTSAKGWGELEFGAGDLQGPLFGLKLFRNLTPRCFVTTNCALQFSSRGIRPGLTTVLARNLDKNTVGYLQWRWGIQSAMNTSIVRDTKTSHFTVALQLGIPHSFALISYQHKFQDDDQTRVKGSLKAGFFGTVVEYGAERKISRHSVLGAAVSVGVPQGVSLKVKLNRASQTYFFPIHLTDQLLPSAMFYATVGPLVVYFAMHRLIIKPYLRAQKEKELEKQRESAATDVLQKKQEAESAVRLMQESVRRIIEAEESRMGLIIVNAWYGKFVNDKSRKSEKVKVIDVTVPLQCLVKDSKLILTEASKAGLPGFYDPCVGEEKNLKVLYQFRGVLHQVMVLDSEALRIPKQSHRIDTDG [DNAJC11] | 52.6 | 52.3 | 0.0819 | -0.993 | -0.172 | -0.0355
6 | MATASPAADGGRGRPWEGGLVSWPPAPPLTLPWTWMGPSWGQHPGHWGFPALTEPSASPAAGLGIFEVRRVLDASGCSMLAPLQTGAARFSSYLLSRARKVLGSHLFSPCGVPEFCSISTRKLAAHGFGASMAAMVSFPPQRYHYFLVLDFEATCDKPQIHPQEIIEFPILKLNGRTMEIESTFHMYVQPVVHPQLTPFCTELTGIIQAMVDGQPSLQQVLERVDEWMAKEGLLDPNVKSIFVTCGDWDLKVMLPGQCQYLGLPVADYFKQWINLKKAYSFAMGCWPKNGLLDMNKGLSLQHIGRPHSGIDDCKNIANIMKTLAYRGFIFKQTSKPF [ERI3] | – | 54.7 | 0.384 | -0.0416 | 0.0291 | -0.0837
7 | MATEHVNGNGTEEPMDTTSAVIHSENFQTLLDAGLPQKVAEKLDEIYVAGLVAHSDLDERAIEALKEFNEDGALAVLQQFKDSDLSHVQNKSAFLCGVMKTYRQREKQGTKVADSSKGPDEAKIKALLERTGYTLDVTTGQRKYGGPPPDSVYSGQQPSVGTEIFVGKIPRDLFEDELVPLFEKAGPIWDLRLMMDPLTGLNRGYAFVTFCTKEAAQEAVKLYNNHEIRSGKHIGVCISVANNRLFVGSIPKSKTKEQILEEFSKVTEGLTDVILYHQPDDKKKNRGFCFLEYEDHKTAAQARRRLMSGKVKVWGNVGTVEWADPIEDPDPEVMAKVKVLFVRNLANTVTEEILEKAFSQFGKLERVKKLKDYAFIHFDERDGAVKAMEEMNGKDLEGENIEIVFAKPPDQKRKERKAQRQAAKNQMYDDYYYYGPPHMPPPTRGRGRGGRGGYGYPPDYYGYEDYYDYYGYDYHNYRGGYEDPYYGYEDFQVGARGRGGRGARGAAPSRGRGAAPPRGRAGYSQRGGPGSARGVRGARGGAQQQRGRGVRGARGGRGGNVGGKRKADGYNQPDSKRRQTNNQNWGSQPIAQQPLQGGDHSGNYGYKSENQEFYQDTFGQQWK [SYNCRIP] | 51.3 | 50.8 | -1.08 | -0.356 | 0.0281 | 0.0879
8 | MATEQRPFHLVVFGASGFTGQFVTEEVAREQVDPERSSRLPWAVAGRSREKLQRVLEKAALKLGRPTLSSEVGIIICDIANPASLDEMAKQATVVLNCVGPYRFYGEPVIKACIENGASCIDISGEPQFLELMQLKYHEKAADKGVYIIGSSGFDSIPADLGVIYTRNKMNGTLTAVESFLTIHSGPEGLSIHDGTWKSAIYGFGDQSNLRKLRNVSNLKPVPLIGPKLKRRWPISYCRELKGYSIPFMGSDVSVVRRTQRYLYENLEESPVQYAAYVTVGGITSVIKLMFAGLFFLFFVRFGIGRQLLIKFPWFFSFGYFSKQGPTQKQIDAASFTLTFFGQGYSQGTGTDKNKPNIKICTQVKGPEAGYVATPIAMVQAAMTLLSDASHLPKAGGVFTPGAAFSKTKLIDRLNKHGIEFSVISSSEV [SCCPDH] | 53.2 | 54 | 0.42 | -2.32 | -0.086 | 0.0063
9 | MATGGYRTSSGLGGSTTDFLEEWKAKREKMRAKQNPPGPAPPGGGSSDAAGKPPAGALGTPAAAAANELNNNLPGGAPAAPAVPGPGGVNCAVGSAMLTRAAPGPRRSEDEPPAASASAAPPPQRDEEEPDGVPEKGKSSGPSARKGKGQIEKRKLREKRRSTGVVNIPAAECLDEYEDDEAGQKERKREDAITQQNTIQNEAVNLLDPGSSYLLQEPPRTVSGRYKSTTSVSEEDVSSRYSRTDRSGFPRYNRDANVSGTLVSSSTLEKKIEDLEKEVVRERQENLRLVRLMQDKEEMIGKLKEEIDLLNRDLDDIEDENEQLKQENKTLLKVVGQLTR [PAWR] | 60.6 | 55.7 | -0.931 | -1.76 | 0.552 | 0.127
10 | MATGQKLMRAVRVFEFGGPEVLKLRSDIAVPIPKDHQVLIKVHACGVNPVETYIRSGTYSRKPLLPYTPGSDVAGVIEAVGDNASAFKKGDRVFTSSTISGGYAEYALAADHTVYKLPEKLDFKQGAAIGIPYFTAYRALIHSACVKAGESVLVHGASGGVGLAACQIARAYGLKILGTAGTEEGQKIVLQNGAHEVFNHREVNYIDKIKKYVGEKGIDIIIEMLANVNLSKDLSLLSHGGRVIVVGSRGTIEINPRDTMAKESSIIGVTLFSSTKEEFQQYAAALQAGMEIGWLKPVIGSQYPLEKVAEAHENIIHGSGATGKMILLL [CRYZ] | 55.2 | 55 | -0.614 | -0.806 | 0.212 | -0.187
11 | MATHGQTCARPMCIPPSYADLGKAARDIFNKGFGFGLVKLDVKTKSCSGVEFSTSGSSNTDTGKVTGTLETKYKWCEYGLTFTEKWNTDNTLGTEIAIEDQICQGLKLTFDTTFSPNTGKKSGKIKSSYKRECINLGCDVDFDFAGPAIHGSAVFGYEGWLAGYQMTFDSAKSKLTRNNFAVGYRTGDFQLHTNVNDGTEFGGSIYQKVCEDLDTSVNLAWTSGTNCTRFGIAAKYQLDPTASISAKVNNSSLIGVGYTQTLRPGVKLTLSALVDGKSINAGGHKVGLALELEA [VDAC2] | 59.9 | 60.3 | -1.16 | -4.22 | -0.125 | -0.0952
